Legend:
[1] = test system: CC(=O)N[C@H]1[C@H](Oc2ccc([N+](=O)[O-])cc2)O[C@H](CO)[C@@H](O)[C@@H]1O; experiment: purified protein; conditions: 0.1 M phosphate pH 7.0, 37°C, 0-500 μM substrate, enzyme unstable
Description: initial rates, reducing sugar (DNS) assay, nonlinear regression on VhNag1

[2] = substrate: CC(=O)N[C@H]1[C@H](Oc2ccc([N+](=O)[O-])cc2)O[C@H](CO)[C@@H](O)[C@@H]1O; experiment: initial rates, reducing sugar (DNS) assay, nonlinear regression; assay type: biochemical, Vibrio harveyi; conditions: 0.1 M phosphate pH 7.0, 37°C, 0-500 μM substrate
Description: initial rates, reducing sugar (DNS) assay, nonlinear regression on VhNag2

Molecule | Km [1] [µM] | kcat [1] [s⁻¹] | kcat/Km [1] [M⁻¹ s⁻¹] | Km [2] [µM] | kcat [2] [s⁻¹] | kcat/Km [2] [M⁻¹ s⁻¹]
VhNag1 (Vibrio harveyi) | 172 ± 48 | 0.08 | 465 |  |  | 
VhNag2 (Vibrio harveyi) (protein, full-length, 1,926 bp, 73,143 Da, C-terminal His6 (pQE60), E. coli M15, Ni-NTA; no signal peptide predicted) EYRVDLVVLSEQKQNCRFGLTFHNLSDQDLNSWGLTFAFDRYILPDSVSNGQLTQIGSFCTLKPEGIVLAANHHYYCEFSIGSNPFRYYSDGFNEAMIDFVVDGQPQRAQVDVTPIVLASPYRERSDIPASLTHAQPLLPKPNHIEVSDHSFTFDEQAGVAIYTDLANSAKAWLLEELQRIHQFTLSSSNSGKIIFKSNPTLDEGAYKLKVSEESIKIEAGSSSGFTHACATLLQLLKRDEATKTMEAVCCSIIDSPRFRYRGMMLDCARHFHSVEQVKRLINLLAHYKLNTFHWHLTDDEGWRVEIKSLPQLTEIGAWRGIDETIEPQYTHLSQRYGGFYTQEEIRDVIAFAEQRGITIIPEIDVPGHCRAAIKSLPHLLIEAEDTTEYRSIQHYNDNVINPALPGSYEFIDKVLEEIAALFPAPYVHIGADEVPNGVWSKSPACQALMEQLGYTDYKELQGHFLRHAEDKLRKLGKRMLGWEEAQHGNKVSKDTVIYSWLSEEAALNCARQGFDVVLQPAQTTYLDMTQDYAPEEPGVDWANPLPLEKAYNYEPLAEVPADDPIRKRIWGIQTALWCEIINNPSRMDYMIFPRLTAMAEACWTEKQHRDWTDYLSRLKGHLPLLDLQGVNYRKPWK |  |  |  | 77 ± 17 | 0.38 | 4940

From paper PMC2955587, “Novel β-N-acetylglucosaminidases from Vibrio harveyi 650: Cloning, expression, enzymatic properties, and subsite identification” (BMC Biochemistry, 2010)
